From article PMC7835958, “Unlike its Paralog LEDGF/p75, HRP-2 Is Dispensable for MLL-R Leukemogenesis but Important for Leukemic Cell Survival” (Cells, 2021)

T1: MBP-LEDGF/p75_(325–530) (human, UniProt O75475 325-530)
T1 construct: LEDGF/p75 C-terminal fragment, residues 325-530; also called LEDGF_(325–530); MBP-fused C-terminal fragment of LEDGF/p75; source: E. coli Rosetta2 (DE3), purified
T1 sequence (looked up): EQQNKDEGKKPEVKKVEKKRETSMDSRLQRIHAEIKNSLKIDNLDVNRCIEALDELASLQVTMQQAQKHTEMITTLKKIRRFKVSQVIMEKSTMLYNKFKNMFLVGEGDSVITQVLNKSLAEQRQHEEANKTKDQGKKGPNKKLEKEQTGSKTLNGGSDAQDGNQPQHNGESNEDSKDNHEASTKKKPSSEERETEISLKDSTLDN

T2: LEDGF/p75_(345–426) (human, UniProt O75475 345-426, 15N-labeled)
T2 construct: also called LEDGF/p75-IBD; LEDGF/p75 IBD; source: E. coli Rosetta2 (DE3), purified
T2 sequence (looked up): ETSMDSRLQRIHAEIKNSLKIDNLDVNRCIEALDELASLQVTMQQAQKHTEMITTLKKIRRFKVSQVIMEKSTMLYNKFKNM

T3: HRP-2_(469–549) (human, UniProt Q7Z4V5 469-549, 15N-labeled)
T3 construct: also called HRP-2-IBD; HRP-2 IBD; source: E. coli Rosetta2 (DE3), purified
T3 sequence (looked up): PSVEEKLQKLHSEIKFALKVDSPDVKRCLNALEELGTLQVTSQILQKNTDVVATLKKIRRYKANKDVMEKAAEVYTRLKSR

B1: MLL_(1–160)–GST (domain or fragment, UniProt Q03164 1-160, looked up)
chain: MAHSCRWRFPARPGTTGGGGGGGRRGLGGAPRQRVPALLLPPGPPVGGGGPGAPPSPPAVAAAAAAAGSSGAGVPGGAAAASAASSSSASSSSSSSSSASSGPALLRVGPGFDAALQVSAAIGTNLRRFRAVFGESGGGGGSGEDEQFLGFGSDEEVRVR
notes: MLL (MLL1, KMT2A) N-terminal fragment, residues 1-160; The printed name MLL_(1–160)–GST hints at a C-terminal GST; also called GST-tagged MLL_(1–160); GST-tagged N-terminal fragment of MLL; source: E. coli Rosetta2 (DE3), purified
B2: synthetic MLL peptide (123–160) (peptide, UniProt Q03164 123-160, looked up)
peptide: GTNLRRFRAVFGESGGGGGSGEDEQFLGFGSDEEVRVR
notes: also called MLL-derived peptide; source: synthetic peptide

What was measured:
Conditions in all cases: both partners purified
[1] = target: T1, MBP-LEDGF/p75_(325–530); experiment: AlphaScreen or HTRF; out-competition: Flag-LEDGF/p75 (0.3 nM) preincubated with MLL_(1–160)–GST (10 nM) before titration of MBP-LEDGF/p75_(325–530), MBP-HRP-2_(470–552) or MBP alone
[2] = target: T4, Full length flag-tagged LEDGF/p75 (human, UniProt O75475 1-530); experiment: as above
T4 construct: LEDGF/p75, full length; also called Flag-LEDGF/p75; flag-LEDGF/p75; source: E. coli Rosetta2 (DE3), purified

[3] = target: T2, LEDGF/p75_(345–426); experiment: NMR titration; 20 µM 15N-labeled IBD (HRP-2 469–549 or LEDGF/p75 345–426) mixed with various concentrations of unlabeled synthetic MLL peptide (123–160); 15N/1H HSQC (SOFAST), 25 °C; KD from chemical shift perturbations
[4] = target: T3, HRP-2_(469–549); experiment: as above

| Binder | binding result [1] | binding result [2] | binding result [3] | Kd [4] [µM] |
| --- | --- | --- | --- | --- |
| B1 | binds | binds |  |  |
| B2 |  |  | binds | 54.4 ± 2.2 |
